Data on seven molecules can be found in patent US20240093191A1, “COMPOSITIONS AND METHODS FOR TREATING DISEASE ASSOCIATED WITH DUX4 OVEREXPRESSION” (RESEARCH INSTITUTE AT NATIONWIDE CHILDREN'S HOSPITAL, priority 2021, published 2024).

For one series, the system named is mir-675. Conditions: published gene expression studies; cited from earlier work.
In series [1] the test system is DUX4 ORF (RenLuc-DUX4 ORF). The experiment in a line: Dual-luciferase assay, RenLuc-DUX4 ORF reporter co-transfected with miDUX4 plasmids in HEK293 cells. It counts as cell-based, human. Particulars: DUX4:mi405 molar ratio 2 to 1; HEK293; 24 h; normalized to U6.miGFP. As for the experimental part: Dual Luciferase Assay. (See also FIGS. 1A, 3A-B, 4A-B, 5B, and 16B-C.) This assay was performed as previously described by Wallace et al. (Mol. Ther. Methods Clin. Dev. 8: 121-30 (2018)) and following the dual-luciferase reporter assay system (Promega) protocol with some modifications. All plasmid constructs had the psiCheck2 dual luciferase reporter plasmid (Promega) as backbone that contains separate Renilla and Firefly luciferase genes, where the former contains the various target sequences used in the experiments of the disclosure, and the latter serves as a transfection normalizer (control). All DUX4 and control sequences were cloned downstream of the Renilla luciferase stop codon, serving as a 3′UTR. HEK293 cells were pre-plated 24h before transfection. Cells were then co-transfected with the luciferase DUX4 reporter and individual microRNA expression plasmids in an increasing luciferase DUX4 reporter:miRNA molar ratio using Lipofectamine 2000 (Invitrogen). Luciferase activity was measured 24h or 48h after transfection. DUX4 gene silencing was determined as previously described [Wallace et al., Mol. Ther. Methods Clin. Dev. 8: 121-30 (2018)]. Triplicate data were averaged per experiment, and individual experiments were performed 3 times. Results were reported as the average ratio of Renilla to Firefly luciferase activity±SEM for all combined experiments.
Accordingly, two new mi405 constructs, i.e., mi405F and mi405NF, were designed. […] To assess the inhibition efficiency of the three mi405 constructs, a dual-luciferase assay and western blot analysis, similar to what was described for mir-675, were carried out. In the dual-luciferase assay, U6.mi405, U6.mi405F, or U6.mi405NF was co-transfected into HEK293 cells along with the RenLuc-DUX4 ORF (a construct expressing the open reading frame of DUX4 as a 3′UTR sequence of Renilla Luciferase). 24 h after transfection, U6.mi405, U6.mi405F, and U6.mi405NF reduced the relative Renilla luciferase activity by 85±1%, 89±1%, and 66±1% (P<0.0001, ANOVA, N=3), respectively, when tested against the RenLuc-DUX4 ORF construct.

The subject of the next series is mi405 mature sequence. Put plainly: QPCR of mature mi405 (standard TaqMan cDNA synthesis) in HEK293 cells. The format is cell-based, human. Conditions: 24 h after transfection; for reduction of mature mi405 sequence expression relative to U6.mi405: normalized to RPL13A. Here is the method:
TaqMan Gene Expression Assay. QRT-PCR was carried out to quantify the expression of pri-mir-675, mir-675-5p and mi405 using TaqMan probes (ThermoFisher Scientific). Experiments were started by eliminating genomic DNA from the RNA preparations, and then cDNA was generated using the High-Capacity cDNA Reverse Transcription Kit (Applied Biosystems) following manufacturer's instructions. Within the same cDNA reaction, 1×RT random hexamer primers were used to generate the cDNA for RPL13A, used as a reference gene, and for pri-mir-675. To generate the cDNA for mir-675, the RT mir-675 reverse primer provided by ThermoFisher Scientific was used. For mi405, the mi405 qPCR protocol was done as it was previously described [Wallace et al., Mol. Ther. Methods Clin. Dev. 8: 121-30 (2018)]. To quantify mir-675 and mi405 levels, RNA was extracted using the total RNA protocol for the mirVana miRNA Isolation Kit (Ambion) from HEK293 cells. cDNA was generated using the High-Capacity cDNA Reverse Transcription Kit (Applied Biosystems) using a mix of random hexamer primers and specific reverse primer for pri-mir-675 and mir-675-5p. For mi405, 200 nM of the stem-loop forming primer (5′-[…]-3′) (SEQ ID NO: 144) was also used for the RT step. A custom TaqMan assay (Applied Biosystems) including 1.5 μM of Forward primer (5′-[…]-3′) (SEQ ID NO: 145), 0.7 μM of Reverse primer (5′-GTGCAGGGTCCGAGGT-3′) (SEQ ID NO: 146), and 0.2 μM of mi405 probe (5′-6FAM-ATACGACGTCCAGGAT-3′) (SEQ ID NO: 147) was then run using the CFX Connect Real Time system apparatus (Bio-Rad). RPL13A (Mm02526700_g1; Applied Biosystems) served as the reference gene. The TaqMan gene expression assay consisted of using the TaqMan Gene Expression Master mix and TaqMan probes purchased from ThermoFisher Scientific. 1× of probe was mixed with 1× of the TaqMan Gene Expression Master mix (ThermoFisher Scientific), and with 20 ng of cDNA. The mir-675- and mi405-specific primers and probes were designed to quantify only the mir-675-5p and mi405 mature sequence (see TaqMan Gene Expression Master mix protocol).
Apart from the effect on the inhibition efficiency of mi405, the effect of the flanking sequences on the expression of the miRNA also was tested. Therefore, the expression of the processed mature mi405 sequences was quantified using the standard and advanced TaqMan cDNA synthesis reaction. In the former reaction, a reverse primer detects the mature mi405 sequence following a stem-loop primer-based small RNA detection principle (ThermoFisher Scientific) (Jung et al., RNA (2013) 19: 1-10). The amplification and quantification steps were then performed using a standard TaqMan probe specific to mi405 that base pairs at the junction between the mi405 mature sequence and the reverse primer sequence (FIG. 6A). […] In the TaqMan advanced cDNA synthesis reaction, the mature sequence is extended through ligation of an adaptor sequence at the 5′ end and through the enzymatic addition of a polyA tail at the 3′ end of the mature mi405 sequence. The amplification and quantification steps were then performed using a TaqMan advanced probe specific to mi405 that normally base pairs with the 3′ end of the mature miRNA and with part of the adaptor sequence. Here, an additional TaqMan advanced probe (embedded probe) that only base pairs with the mature sequence of mi405 (FIG. 6B) was used. As a result, following TaqMan advanced cDNA synthesis reaction, droplet digital PCR (ddPCR) was performed to quantify mi405, mi405F, mi405B, mi405C, mi405G and mi405H expression levels. For this, TaqMan advanced embedded and overlapped mi405 probes (FIG. 6B) were used.

Turning to estrogen, in the series with mir-675, the mir-675 expression result is reported as “mir-675 was induced”.

With bleomycin, the mir-675 expression entry in the series on mir-675 was “upregulated mir-675 expression”.

B1: U6.mi405A: mi405 construct with altered flanking sequences (nucleic acid)
DNA: ACGCCGCCATCTCTAGGCCCGCGCCGGCCCCCTCGCACAGACTTGTGGGAGAAGCTCGGCTACTCCCCTGCCCCGGTTAATTTGCATATAATATTTCCTAGTAACTATAGAGGCTTAATGTGCGATAAAAGACAGATAATCTGTTCTTTTTAATACTAGCTACATTTTACATGATAGGCTTGGATTTCTATAAGAGATACAAATACTAAATTATTATTTTAAAAAACAGCACAAAAGGAAACTCACCCTAACTGTAAAGTAATTGTGTGTTTTGAGACTATAAATATCCCTTGGAGAAAAGCCTTGTTTGACCGTTTAAACTCGAGTGAGCGATCCAGGATTCAGATCTGGTTTCTGTAAAGCCACAGATGGGAAACCAGATCTGAATCCTGGACTGCCTACTAGAGCGGCCGCCACTTTTTT
As for B1, in series [1], the “reduction of Renilla luciferase activity” value is 72±1%. In the series with mi405 mature sequence, the “levels of mature mi405 sequence compared to U6.mi405” value (shortened to “levels … compared to U6.mi405”) is “greater or higher with the difference not being statistically significant”.

B2: U6.mi405B: mi405 construct with altered flanking sequences (nucleic acid)
DNA: ACGCCGCCATCTCTAGGCCCGCGCCGGCCCCCTCGCACAGACTTGTGGGAGAAGCTCGGCTACTCCCCTGCCCCGGTTAATTTGCATATAATATTTCCTAGTAACTATAGAGGCTTAATGTGCGATAAAAGACAGATAATCTGTTCTTTTTAATACTAGCTACATTTTACATGATAGGCTTGGATTTCTATAAGAGATACAAATACTAAATTATTATTTTAAAAAACAGCACAAAAGGAAACTCACCCTAACTGTAAAGTAATTGTGTGTTTTGAGACTATAAATATCCCTTGGAGAAAAGCCTTGTTTGACCGTTTAAACTCGAGTGAGCGATCCAGGATTCAGATCTGGTTTCTGTAAAGCCACAGATGGGAAACCAGATCTGAATCCTGGACTGCCTACTAGATTTTTT
As to B2, in series [1], the “reduction of Renilla luciferase activity” value is 25±3%. Besides, the “reduction of mature mi405 sequence expression relative to U6.mi405” value in the series with mi405 mature sequence stood at 71±9%.

B3: U6.mi405D: mi405 construct with altered flanking sequences (nucleic acid)
DNA: ACGCCGCCATCTCTAGGCCCGCGCCGGCCCCCTCGCACAGACTTGTGGGAGAAGCTCGGCTACTCCCCTGCCCCGGTTAATTTGCATATAATATTTCCTAGTAACTATAGAGGCTTAATGTGCGATAAAAGACAGATAATCTGTTCTTTTTAATACTAGCTACATTTTACATGATAGGCTTGGATTTCTATAAGAGATACAAATACTAAATTATTATTTTAAAAAACAGCACAAAAGGAAACTCACCCTAACTGTAAAGTAATTGTGTGTTTTGAGACTATAAATATCCCTTGGAGAAAAGCCTTGTTTGACTCGAGTGAGCGATCCAGGATTCAGATCTGGTTTCTGTAAAGCCACAGATGGGAAACCAGATCTGAATCCTGGACTGCCTACTAGAGCGGCCGCCACTTTTTT
As for B3, the “reduction of Renilla luciferase activity” value in series [1] is given as 71±1%. Moreover, the “levels … compared to U6.mi405” value with mi405 mature sequence is listed as “greater or higher with the difference not being statistically significant”.

B4: U6.mi405E: mi405 construct with altered flanking sequences (nucleic acid)
DNA: ACGCCGCCATCTCTAGGCCCGCGCCGGCCCCCTCGCACAGACTTGTGGGAGAAGCTCGGCTACTCCCCTGCCCCGGTTAATTTGCATATAATATTTCCTAGTAACTATAGAGGCTTAATGTGCGATAAAAGACAGATAATCTGTTCTTTTTAATACTAGCTACATTTTACATGATAGGCTTGGATTTCTATAAGAGATACAAATACTAAATTATTATTTTAAAAAACAGCACAAAAGGAAACTCACCCTAACTGTAAAGTAATTGTGTGTTTTGAGACTATAAATATCCCTTGGAGAAAAGCCTTGTTTGACTCGAGTGAGCGATCCAGGATTCAGATCTGGTTTCTGTAAAGCCACAGATGGGAAACCAGATCTGAATCCTGGACTGCCTACTAGAGCGCACGCCAGTTTTTT
On to B4, for which the “reduction of Renilla luciferase activity” value in series [1] was found to be 73±1%. In the series on mi405 mature sequence, the “levels … compared to U6.mi405” value is “greater or higher with the difference not being statistically significant”.

B5: U6.mi405C: mi405 construct with altered flanking sequences (nucleic acid)
DNA: ACGCCGCCATCTCTAGGCCCGCGCCGGCCCCCTCGCACAGACTTGTGGGAGAAGCTCGGCTACTCCCCTGCCCCGGTTAATTTGCATATAATATTTCCTAGTAACTATAGAGGCTTAATGTGCGATAAAAGACAGATAATCTGTTCTTTTTAATACTAGCTACATTTTACATGATAGGCTTGGATTTCTATAAGAGATACAAATACTAAATTATTATTTTAAAAAACAGCACAAAAGGAAACTCACCCTAACTGTAAAGTAATTGTGTGTTTTGAGACTATAAATATCCCTTGGAGAAAAGCCTTGTTTGCTCGAGTGAGCGATCCAGGATTCAGATCTGGTTTCTGTAAAGCCACAGATGGGAAACCAGATCTGAATCCTGGACTGCCTACTAGAGCGGCCGCCACTTTTTT
B5: the “reduction of Renilla luciferase activity” value in series [1] was determined as 64±1%. For the same molecule, the “reduction of mature mi405 sequence expression relative to U6.mi405” value with mi405 mature sequence is 63±27%.
